Molecular target: Aspergillus terreus LovB: Lovastatin nonaketide synthase

B1: Aspergillus terreus LovG: Esterase (protein)
chain: HHHHHHMRYQASPALAKAPRALLCIHGAGCSPAIFRVQLSKLRAALREDFEFVYVTAPFPSSAGPGILPVFADLGPYYSWFESSSGNNNNGPSVGERLAAVHDPIRRTIVDWQTQHPHIPIVGAIGFSEGALVTTLLLWQQQMGRLPWLPRMSVAMLICPWYQDEASQYMRNEVMENHDDDHDSKDTEWQEELVIRIPTLHLQGRDDFALAGSKMLVARHFSPREAQVLEFAGQHQFPNRPRDVLEVINRFRKLCVTVQTLE
offloaded aberrant products 8-10 from LovB in vitro in the absence of LovC (HPLC at 330 nm, LC-MS): Upon addition of LovG at equimolar concentration to LovB, the in vitro assay mixture turned significantly more yellow and the extract contained high amounts of offloaded products 8-10, in addition to 6 and 7
turnover rate of dihydromonacolin L acid (2), in vitro with equimolar (10 µM) LovB, LovC and LovG: the turnover rate of dihydromonacolin L acid (2) was estimated to be ˜0.12 hour^-1
